How the values were obtained:
[1] = molecular target: nervous necrosis virus (NNV) particles (nervous necrosis virus (from grouper)); experiment: immunomagnetic reduction (IMR), logistic fit of IMR (%) against NNV concentration
[2] = molecular target: nervous necrosis virus (NNV) particles (nervous necrosis virus (from grouper)); experiment: immunomagnetic reduction (IMR), anti-NNV magnetic nanoparticles mixed with NNV solution; value at 5 TCID50/ml NNV
[3] = molecular target: nervous necrosis virus (NNV) particles (nervous necrosis virus (from grouper)); experiment: immunomagnetic reduction (IMR), anti-NNV magnetic nanoparticles mixed with NNV solution; value at 10^7 TCID50/ml NNV

nervous necrosis virus antibody (anti-nervous necrosis virus), covalently bound to the dextran shell of Fe3O4 magnetic nanoparticles
B (high-end value of the IMR signal, logistic fit) [1]: 3.47%
φo (fitting parameter of the logistic function of IMR signal against NNV concentration) [1]: 26700 TCID50/ml
IMR signal [2]: 0.84%
IMR signal [3]: 3.04%

Reference: patent EP2546652A1
